# Source: the nanobody polyreactivity screen of Harvey et al. (2022)
# Test: yeast display, Sf9 membrane polyspecificity reagent, FACS + sequencing; frameworks hold sequencing errors
# Summary of the method: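 Using colony PCR, genes from sorted yeast display clones were amplified, then sequenced on MiSeq at 2 × 250 and filtered by CDR length. The clones had been stained with 10% biotinylated, detergent-solubilized Sf9 membrane reagent for 1 hour at 4 °C and sorted by FACS into low and high (top ~1%) gates on anti-HA and streptavidin fluorescence. Polyreactivity labels come from the gate of origin.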
row,Sequence,polyreactivity (PSR sort gate)
1,QVQLVESGGGFVQAGGSLRLSCAASGGIFDVYAMGWYRQAPGKERELVAAISENGGSTYYADSVKGRFTISRDNAKNTVYLQMNSLKPEDTAVYYCAADDVSLSVFSYWAWYDYWGQGSQVTVSS,low polyreactivity
2,QVQLVESGGGFVQAGGSLRLSCAASGNTFAGNAMGGYRQAPGKERELDAAISRSGVTTRYADSVKGRFTISRDNAKNTVYFQMKSLKPEDTAVSYCNADPRLRETRDYWGQVTQVTVSS,high polyreactivity
3,QVQLVESGGGFVQAGGSLRLSCAASGRIFLWNAMGWYRQAPGKERELVAGIRWSTGSTYYADSVKGRFTISRDNAKYTVSLQMYSLKRDDTAVYYCNARSLATGSKVPARGYWGQGTQVTVSS,high polyreactivity
4,QVQLVESGGGFVQAGGSLRLSCAASGRIIGYNAMAWYRQAPGKDRELVAAITTSGGSTYYADSVKGRFTISRDNAKNTVYLQMNSLKPEDTAFYYCARDSLQVFYAYASDDFWGQGTQVTVSS,low polyreactivity
5,QVQLVESGGGFVQAGGSLRLSCAASGRTFRYYAMGWYIQAPGKERELVASISSSGARTYYADSVKGRFTISRDNAKNTVYLQMNSLNPDDTAVYYCNARYSTTYYGTIYRGMDYWGQGTQVTVSS,high polyreactivity
6,QVQLVESGGGFVQAGGSLRLSCAASGSIFYYNAMGWYRQAPGKEREFVAAITTSAGSTYYADSVKGRFTISRDNEKNTVYLQMYRLKPEDTAVYYCAASPGRRRRPYASLFRYDYWGQGTQVTVSS,high polyreactivity
7,QVQLVESGGGFVQAGGSLRLSCAASGSNLGKNTMGWYRQAPGKERELVATISRSGGSTYYADSVKGRFTISRDNAKNTVYLQMNSLKPEDTAVYYCAARAIRSGYYRYDYWGQGTKVTVSS,high polyreactivity
8,QVQLVESGGGFVQAGGSLRLSCAASGSTFFVYAMGWYRQAPGKERELVASIRWRGSSTYYADSVKGRFTISRDNAKNTVYLQMNSLKPEDTAVYYCAATSYNGYGYWGQGTQVTVSS,high polyreactivity
9,QVQLVESGGGFVQAGGSLRLSCAASGSTFGTYAMGWYRQAPGKERELVAAISWSGGSTYYADSVKGRFTISRDNAKNTVYLQMNSLKPEDTAVYYCNATSSTPPGMDSWGQGTQVTVSS,low polyreactivity
10,QVQLVESGGGFVQAGGSLRLSCAASGSTFLVYAMGWYRQAPGKERELVAVIDTGASTNYADSVKGRFTISRDNAKNTVYLQMNSLKPEDTAVYYCAAGFSYFTSVLSLDRYYYWGQGTQVTVSS,low polyreactivity
11,QVQLVESGGGFVQAGGSLRLSCAASGSTFPVYAMGWYRQAPGKERELVAAISRSGASTYYADSVKGRFTISRDNAKNTVYLQMNSLKPEDTAVYYCARGYQGRLKNEYWGQGTQVNVSS,low polyreactivity
12,QVQLVESGGGFVQAGGSLRLSCAASGYTFDHNAMGWYRQAPGKERELVAAISLTGSSTYYADSVKGRFTISRDNANNNVYLQMNSLKPEDTAVYYCAAVYHQAFKYKFNYWGQGTQVTVSS,low polyreactivity
13,QVQLVESGGGFVQAGGSLRLSCAPSGRIFLRNDMGWYRQAPGKEREWVAGISWRGGRTYYADAVKGRFTISRDNAKNTVYLQMNSLKPEDTAVYYCNADKDETSGGKYDSWGQGTQVTVSS,low polyreactivity
14,QVQLVESGGGFVQAGGSLRLSSAASGRTFDTNAMGWYRQSPGKERELVAAISWSAGRTYYADSVKGRFTISRDNAKNTVYLQMNSLKPEDTAVYYCAADSFTPDYYSHDYCGQGTQVTVSS,low polyreactivity
15,QVQLVESGGGFVQAGGSLSLSCAASGFTFRRYAMGWYRQAPGKERELVAAITSGGSTNYADSVKGRFTISRDNAKNTVYLQMNSLKPEDTAVYYCNARAGYERYGYWGQGTQVTVSS,high polyreactivity
16,QVQLVESGGGFVQAGGSVRLSCAASGRIFKYAMGWYIPAPGKERELVAAITHKGGSTYADSEKGRFTISRDNAKTTVYIQLNSRKPEDTAVYYCAAYYYYGKGYRRFDYWGQGTQVTVSS,low polyreactivity
17,QVQLVESGGGFVQAGVSLRLSCAASGSIFVVYGMGWYRQAPGKERELVAAISGGITNYADSVKGLFTISRDNAKNTVYLLMNSLKPEDTAVYYCATVDGAYQYTYDYWGQGTQVTVSS,low polyreactivity
18,QVQLVESGGGIDKAGGSLRLSCAPSGGIFIRYAMGWYRQAPGKERELVAGIDSGGGTKYADSVKGRFTISRDNAKNTVYLQMNSLKPEDTAVYYCNGEVSVWPFSYDYWGQGTQVTVSS,low polyreactivity
19,QVQLVESGGGIDQAGGSLRLRCAASGFIFRYYAMGWYRLAPGKESELVAVISASGGSTYYADSVKGRFTISRDNAKKTVYLQMNSRKPEDTAVYYCNTKRYFFHRGDMDYWGQGTQVTVSS,high polyreactivity
20,QVQLVESGGGIDQAGGSLRLSCAASGFIFTNYAMGWYRQAPGKERELVAAITRRGGGTYYADSVKGRFTISRDNAKKTVYVQMNSLKPEDTAVYYCAKYSRLVTANDYDYWGQGTQVTVSS,high polyreactivity
21,QVQLVESGGGIDQAGGSLRLSCAASGNTFYWYAMGWYRQAPGKERDLVAAISRGGRTNYADSVKGRFTISRDNAKNTVYLQMNSLKPEDTAVYFCAKDSNYPQPSKGWYRYDYWGLGTQVTVSS,high polyreactivity
22,QVQLVESGGGIDQAGGSLRLSCAASGRTFTSNAMGWYRQAPGKERELVAVIDRSGTSTYYADSVKGRFTISRDNAKNTVYLQMNSLKPEDTAVYYCAVRVRYSYTSRAKMYYWGQGTQVTVSS,high polyreactivity

row,Sequence,polyreactivity (PSR sort gate)
1,QVQLVESGGGIVEAGGSLRLSCAASGRIFNQYAMGWYRQAPGKEREFVAAIRWSGGRTYYADSVKGRFTISRDNAKNTVYLQMNRLKPEDTAVYYCAADLYGNNYWDGTTGYDYWGQGTQVTVSS,low polyreactivity
2,QVQLVESGGGIVEAGGSLRLSCAASGSTYYWNAMVWYIQAPGKERELVAAISRDGSTYYADSVNGRFTISRDNAKKTVYLHMNCLKPEVTAVYYCAKACVTNVVVVDSVFAYDYWGQGTIVTVSS,low polyreactivity
3,QVQLVESGGGIVKAGGSLRLSCAPSGSTFDYYTMGWYRQAPGKERELVAAISRSGGSTRYADSVKGRFTISRDNAKNTVDLQMNSLKPEDTAVYYCAAGARQGVYRGGDYWGQGTQVTVSS,low polyreactivity
4,QVQLVESGGGIVQAGCSLRLICAASGRIFYSNYMGWYRQAPGKERELVAAISSSGGSTYYADSLKGRFTISRDNANNTVYLQMNSLKPEDTAVYYCNAVHARYRSQGDYWGQGTQVTVSS,low polyreactivity
5,QVQLVESGGGIVQAGCSLRLSCAASGRTFSWNSMGWYRQAPGKERELVAAITYSGGNTYYADSVKGRFSISRDNAKNTVYLQMNSLKQEDTAVYYCAKFGVTGQGSWSQRMGYWGQGTQVTVSS,high polyreactivity
6,QVQLVESGGGIVQAGGILRLTGAASVITNTSYAMGWYRQAPGKERELVAAISSSGVRTYYADSVKGRFTISRDNAKNTVYLQLNSLKPEDTAVYYCATRRRVLFGYDYWGQGTQVTVSS,high polyreactivity
7,QVQLVESGGGIVQAGGRHRLSCAASGRTFWRNPMGWYSPAPGKERELVASIRITGGSTYYADSVMGRFTISRDNAKTTVYLQMNSLNAEDTAVYYCPASSGIRFVGLSYPIGNYYYWGQGSQVTVSS,high polyreactivity
8,QVQLVESGGGIVQAGGRLRLSCAASGFTCARNVMGWYRQAPGKERELVAAITTSGGSTYYADSVKGRFTISRDNAKNTVSLQMNSLKPEDTAGYYCARRVYGYYIPYNYWGQGTQVTVSS,high polyreactivity
9,QVQLVESGGGIVQAGGRLRLSCDASGSTFSRYTMGWYRQAPGKEREFVAAIRTSGGRTYEDSVKGRFTISRDNAKNTVYVQMNSLKPEDTAVYYCAATRYYGYNTKYEYWGQGTQVTVSS,high polyreactivity
10,QVQLVESGGGIVQAGGSHRLSCAASGSIFVSNAMGWYRQAPGKERELVAAISQSGGSTYYADSVKGRFTISRDTAKNTVYLQMNSLNPEDTAVYYCATPIRSGFRIYDYWGQGTQVTVSS,low polyreactivity
11,QVQLVESGGGIVQAGGSHRLSCAASGYIFKPNHMGWYRQAPGIDRELVAAISKSRGTTYYADSVKGRFTISRDNAKNTVYLQMNGLKPEDTAVYFCGGVRRYHSYPDGGYWGQGSQVTVSS,high polyreactivity
12,QVQLVESGGGIVQAGGSLLLSCAASGSTIIRYVKGWYRQAPGTERELVAGINSSAGSTNYADSVKGRFTISRDNAKNTVYLQMISLKPEDTAVYYCNADLRSEYDYWGQGTQVTVSS,low polyreactivity
13,QVQLVESGGGIVQAGGSLRISCAASGIIFQYYVMGWYRQAPGKESELVAAIEKSGGSTYYADSLKGRFTISRDYAKNTVYLQMNSLNPDDTAVYYCAATSYAHKYYGYFGAIKYEYWGQGTQVTVSS,low polyreactivity
14,QVQLVESGGGIVQAGGSLRKSCAASGFTFDENAMGWYRQAPGINYSGASTYYADSVKGRFTISRDNAKNTVYLQMNSLKPEDTAVYYCAAEVVAQMNYWGQGTQVTVSS,low polyreactivity
15,QVQLVESGGGIVQAGGSLRLICAASGSIFDVNALGWYSQAPGKERELVAAITWSGGNTYYADSVKGRFTISRDNAKNNFYLQMYSLKPEDTAVYYCNVYVSAGEEDEYWGQVTQVTVSS,low polyreactivity
16,QVQLVESGGGIVQAGGSLRLICAASGYTFNYYAMGWYRQAPGKEREFVASTYADSVKGRFTISRDNAKNTVYLQMNSLKPEDTAVYYCNARNLGRYLVLSYGYWGQGTQVTVSS,low polyreactivity
17,QVQLVESGGGIVQAGGSLRLICAASVITLVLYAMVWYRQAPGKERELLAAISSSGGSTYYADSVKGRFTISRDNAKNTVYLQMTSLKPEDTAVYYCNVTPDWNARRPFDYWGQGTQVTVSS,high polyreactivity
18,QVQLVESGGGIVQAGGSLRLRCAASGYTFEDNDMGLYRQAPGKERELVAAISVNGGSTYYADSVKGRFTISRDNAKKTVYLQMNSLKPVDTAVFYCNVDTLIGSLYGYDYWGQGTQVTVSS,high polyreactivity
19,QVQLVESGGGIVQAGGSLRLRCAATASIYVHYAMGWYIQAPGKETDLVAAIRWRGGSTNYADSVKGRFTISRDNAKNTVDLQMNSLKQEDTAVSYCNARHPASGDLYRMDYWGPGTQVTVSS,low polyreactivity
20,QVQLVESGGGIVQAGGSLRLSCAASGFIFDVYAMGWYRQAPGKERELVAAISRSGGSTYYADSVKGRFTISRDNAKNTVYLQMNSLKPEDTAVYYCATDLLNNVDYDYWGQGTQVTVSS,low polyreactivity
21,QVQLVESGGGIVQAGGSLRLSCAASGFIFHRNAMGWYRQAPGKERELVASITKRGGNTYYADSVKGRFTISRDTAKNTDFLQMTSLNPEDTGVYYCATQLWGWDWKRDYWGQATQVTVSS,high polyreactivity
